From patent US20250270301A1 (GEN2 NEUROSCIENCE, published 2025)
Read-outs that look alike come from different tables or passages of the source.

Tests used:
[1] = target: T1, full length recombinant human 2N4R tau (human, UniProt P10636 1-758); assay: SPR MCK, IgG on Protein A, tau in flow
T1 construct: bought from rPeptide; pHrodo Red maleimide-labelled where it stands in uptake assays; also called tau1-441; full length tau
Experimental: Slight variations in RMAX are considered likely to be due to differences in ligand capture and not reflective of significant variation in antibody binding characteristics.
22.2 Assessment of antibody binding to tau (Biacore MCK analysis): Binding of anti-tau hIgG1 to full length recombinant 2N4R tau (Rpeptide; SEQ ID NO: 2) was assessed using the Biacore T200 (GE Healthcare, Chicago, IL, USA) running Biacore T200 Evaluation Software V2.0.1. hIgG1 were immobilised on a Protein A capture sensor chip in running buffer (HBS-EP+ buffer containing 1 mg/mL BSA) at 25° C., captured to ˜50 RU at […]. For multi-cycle kinetics experiments, recombinant 2N4R tau was flowed at concentrations ranging from 0.39 nM to 12.5 nM in running buffer at 40 μL/min, with an association time of 60 s and a dissociation time of 200 s. Curves were compared to a reference cell that was mock immobilized (no antibody present).

[2] = target: monomeric P301S 2N4R tau, pHrodo-labelled (human, UniProt P10636 1-758, pHrodo Red maleimide label); assay: cell-based or functional assay
[3] = target: aggregated (oligomeric) P301S 2N4R tau, pHrodo-labelled (human, UniProt P10636 1-758, pHrodo Red maleimide label); assay: cell-based or functional assay
Bovine serum albumin [4] = target: T2, Bovine serum albumin (bovine, UniProt P02769 25-607); assay: ELISA on 1% BSA, HEK supernatant, anti-human IgG-HRP, n=1
T2 construct: also called BSA
Experimental: FIG. 7. A panel of humanised anti-tau IgG bind to full length recombinant 2N4R tau in an ELISA format. Supernatants from HEK cells transiently transfected with each IgG clone were tested at 1:100 for binding to full length recombinant 2N4R tau (solid bars). […] Binding of anti-tau hIgG1 was detected using an HRP-conjugated anti-human secondary antibody and data are shown from a representative experiment (n=1 replicate).
Antigen was removed from wells and the plates were then blocked for 1 hour at RT with 5% dried milk in 1×TBS. Blocking solution was removed, HEK293 cell supernatant (1:100 in 1% BSA/1×TBS) was added to relevant wells, and plates were incubated for 1 hour at RT with gentle shaking. Plates were then washed four times with TBS/0.1% Tween (TBST). Goat anti-human IgG-HRP antibody (Thermo Fisher Scientific, Waltham, MA, USA), diluted 1:2000 in 5% milk/TBS, was added to each well and plates were incubated for 1 hour at RT with gentle shaking before being washed four times with TBST. 3,3′,5,5′-tetramethylbenzidine (TMB) ELISA solution was added to each well and plates were incubated for 15 mins at RT. An equal volume of 1 M sulfuric acid was added to each well and OD was measured at 450 nm.

[5] = target: T1, full length recombinant human 2N4R tau; assay: SPR SCK, IgG on Protein A, tau in flow
Experimental: 21.5 Assessment of antibody binding to tau (Biacore SCK analysis): Binding of anti-tau hIgG1 to full length recombinant 2N4R tau (Rpeptide; SEQ ID NO: 2) was assessed using the Biacore T200 (GE Healthcare, Chicago, IL, USA) running Biacore T200 Evaluation Software V2.0.1. hIgG1 were immobilised on a Protein A capture sensor chip in running buffer (HBS-EP+ buffer containing 1 mg/mL BSA) at 25° C., captured to ˜50 RU at 10 μL/min. For single-cycle kinetics experiments, recombinant 2N4R tau was flowed at concentrations ranging from 1.25 nM to 10 nM (2-fold dilutions) with an association time of 60 s and a dissociation time of 200 s. Curves were compared to a reference cell that was mock immobilized (no antibody present).

Bovine serum albumin [6] = target: T2, Bovine serum albumin; assay: ELISA on 1% BSA, HEK supernatant, anti-human IgG-HRP, n=1; remark: listed apart in the source
[7] = target: T1, full length recombinant human 2N4R tau; assay: SPR SCK, IgG on Protein A, tau in flow; remark: listed apart in the source

T2 sequence (P02769 25-607 limits assumed): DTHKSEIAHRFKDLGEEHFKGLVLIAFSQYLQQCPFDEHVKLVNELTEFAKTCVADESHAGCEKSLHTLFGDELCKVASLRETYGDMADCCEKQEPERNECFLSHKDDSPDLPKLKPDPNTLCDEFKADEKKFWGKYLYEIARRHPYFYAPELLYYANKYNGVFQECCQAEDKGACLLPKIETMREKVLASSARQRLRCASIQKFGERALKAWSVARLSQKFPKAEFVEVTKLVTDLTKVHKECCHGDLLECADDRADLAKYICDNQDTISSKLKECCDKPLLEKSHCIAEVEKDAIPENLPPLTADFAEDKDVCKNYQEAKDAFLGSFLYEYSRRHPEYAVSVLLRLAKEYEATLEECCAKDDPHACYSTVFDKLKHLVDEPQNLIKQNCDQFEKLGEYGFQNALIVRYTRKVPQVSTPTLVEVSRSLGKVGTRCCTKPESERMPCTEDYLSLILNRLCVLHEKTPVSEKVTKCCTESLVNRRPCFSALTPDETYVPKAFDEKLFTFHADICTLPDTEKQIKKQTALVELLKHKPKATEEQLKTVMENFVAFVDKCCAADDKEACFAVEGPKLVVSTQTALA
Sequence of monomeric P301S 2N4R tau, pHrodo-labelled (P10636 other isoform, or with tags, fused parts or gaps P301S P301S): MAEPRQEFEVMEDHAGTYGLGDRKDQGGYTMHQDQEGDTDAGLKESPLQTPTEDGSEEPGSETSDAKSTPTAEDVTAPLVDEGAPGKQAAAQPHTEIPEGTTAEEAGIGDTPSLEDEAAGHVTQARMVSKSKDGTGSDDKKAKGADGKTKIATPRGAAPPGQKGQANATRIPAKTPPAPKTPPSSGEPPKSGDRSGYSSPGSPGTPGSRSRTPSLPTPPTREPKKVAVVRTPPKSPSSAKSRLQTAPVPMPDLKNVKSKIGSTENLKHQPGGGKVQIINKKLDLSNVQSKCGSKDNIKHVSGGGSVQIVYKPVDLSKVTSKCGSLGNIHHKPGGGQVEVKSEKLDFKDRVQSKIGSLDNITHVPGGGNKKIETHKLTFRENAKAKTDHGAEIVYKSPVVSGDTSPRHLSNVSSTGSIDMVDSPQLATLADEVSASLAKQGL
Sequence of aggregated (oligomeric) P301S 2N4R tau, pHrodo-labelled (P10636 other isoform, or with tags, fused parts or gaps P301S P301S): as above
T1 sequence (P10636 other isoform, or with tags, fused parts or gaps limits assumed): as the sequence (P10636 other isoform, or with tags, fused parts or gaps P301S P301S) above, with S301P counted along it

Kd [1] [nM] | Relative KD (to VH0VK0) [1] | koff [1] [s⁻¹] | kon [1] [M⁻¹ s⁻¹] | increase of monomeric tau uptake into human iPSC-derived microglia [2] [%] | inhibition of monomeric tau uptake into human iPSC-derived astrocytes [2] [%] | inhibition of monomeric tau uptake into human iPSC-derived neurons [2] [%] | increase of aggregated tau uptake into human iPSC-derived microglia [3] [%] | inhibition of aggregated tau uptake into human iPSC-derived astrocytes [3] [%] | inhibition of aggregated tau uptake into human iPSC-derived neurons [3] [%] | binding result (Bovine serum albumin [4]) | Kd [5] [nM] | Relative KD (to VH0VK0) [5] | koff [5] [s⁻¹] | kon [5] [M⁻¹ s⁻¹] | Fold change (KD, to pVH/pVL) [7] | Kd [7] [nM] | koff [7] [s⁻¹] | kon [7] [M⁻¹ s⁻¹] | Binder | binding result (Bovine serum albumin [6])
5.7 | 1.75 | 0.0927 | 1.63e+07 | 16.1 | 85.2 | 48.4 | 77.7 | 46.4 | 30.6 | no binding (tested: supernatant 1:100) | 7.71 | 2.01 | 0.0341 | 4.43e+06 | – | – | – | – | #44 VH3VK3 humanised hIgG1 (antibody, V domains shown, also called VH3Vκ3; Clone VH3VK3 (A)) VH: QVQLQESGPGLVKPSETLSLTCTVSGIDLSSYAMAWVRQAPGKGLEWIGCIDRRGGTFYASWVKGRFTISKTSTTVDLQMTSLTAEDTATYFCARDSGAFDPWGQGTLVTVSS VL: DIQMTQSPSSLSASVGDRVTITCQASQSVYDNYLAWYQQKPGQPPKLLIHAASNLASGVPSRFKGSGSGTEFTLTISSLQPDDFATYYCLGEFSCTTTDCNVFGGGTKVEIK | –
4.39 | 1.35 | 0.0401 | 9.14e+06 | 71.4 | 84.6 | 50 | 97.6 | 48 | 41.9 | no binding (tested: supernatant 1:100) | 6.86 | 1.79 | 0.0247 | 3.6e+06 | – | – | – | – | #44 VH4VK2 humanised hIgG1 (antibody, V domains shown, also called VH4Vκ2; Clone VH4VK2 (C)) VH: QVQLQESGPGLVKPSETLSLTCTVSGIDLSSYAMAWVRQAPGKGLEWIGCIDRRGGTFYASWVKGRFTISKDTSKTTVDLQMTSLTAEDTATYFCARDSGAFDPWGQGTLVTVSS VL: QIVMTQSPSSLSASVGDRVTITCQASQSVYDNYLAWYQQKPGQPPKLLIHAASNLASGVPSRFKGSGSGTEFTLTISSLQPDDFATYYCLGEFSCTTTDCNVFGGGTKVEIK | –
– | – | – | – | – | – | – | – | – | – | – | – | – | – | – | 1.03 | 6.4 | 0.0151 | 2.36e+06 | #44_VH4VK4_H03/pVL (antibody, V domains shown, also called Clone VH4_H03; #44_VH4_H03) VH: QVQLQESGPGLVKPSETLSLTCTVSGIDLSSYAMAWVRQAPGKGLEWIGCIDRRGGTFYASWVKGRFTISKDTSKTTVDLQMTSLTAEDTATYFCARDAGAFDVWGQGTLVTVSS VL: DIQMTQSPSSLSASVGDRVTITCQASQSVYDNYLAWYQQKPGQPPKLLIHAASNLASGVPSRFSGSGSGTEFTLTISSLQPDDFATYYCLGEFSCTTTDCNVFGGGTKVEIK | no binding (tested: 30 ng/ml (legend 1:100))
– | – | – | – | – | – | – | – | – | – | no binding (tested: supernatant 1:100) | 5.33 | 1.39 | 0.0195 | 3.66e+06 | – | – | – | – | #44 VH2VK4 humanised hIgG1 (antibody, V domains shown, also called VH2Vκ4) VH: QSVQESGPGLVKPSETLSLTCTVSGIDLSSYAMAWVRQAPGKGLEWIGCIDRRGGTFYASWVKGRFTISKTSTTVDLQMTSLTAEDTATYFCARDSGAFDPWGQGTLVTVSS VL: DIQMTQSPSSLSASVGDRVTITCQASQSVYDNYLAWYQQKPGQPPKLLIHAASNLASGVPSRFSGSGSGTEFTLTISSLQPDDFATYYCLGEFSCTTTDCNVFGGGTKVEIK | –
– | – | – | – | – | – | – | – | – | – | no binding (tested: supernatant 1:100) | 5 | 1.31 | 0.0182 | 3.63e+06 | – | – | – | – | #44 VH2VK2 humanised hIgG1 (antibody, V domains shown, also called VH2Vκ2) VH: QSVQESGPGLVKPSETLSLTCTVSGIDLSSYAMAWVRQAPGKGLEWIGCIDRRGGTFYASWVKGRFTISKTSTTVDLQMTSLTAEDTATYFCARDSGAFDPWGQGTLVTVSS VL: QIVMTQSPSSLSASVGDRVTITCQASQSVYDNYLAWYQQKPGQPPKLLIHAASNLASGVPSRFKGSGSGTEFTLTISSLQPDDFATYYCLGEFSCTTTDCNVFGGGTKVEIK | –
– | – | – | – | – | – | – | – | – | – | no binding (tested: supernatant 1:100) | 4.52 | 1.18 | 0.0187 | 4.14e+06 | – | – | – | – | #44 VH2VK3 humanised hIgG1 (antibody, V domains shown, also called VH2Vκ3) VH: QSVQESGPGLVKPSETLSLTCTVSGIDLSSYAMAWVRQAPGKGLEWIGCIDRRGGTFYASWVKGRFTISKTSTTVDLQMTSLTAEDTATYFCARDSGAFDPWGQGTLVTVSS VL: DIQMTQSPSSLSASVGDRVTITCQASQSVYDNYLAWYQQKPGQPPKLLIHAASNLASGVPSRFKGSGSGTEFTLTISSLQPDDFATYYCLGEFSCTTTDCNVFGGGTKVEIK | –
6.57 | 2.02 | 0.0618 | 9.4e+06 | 80.3 | 87.6 | 43.1 | 83.9 | 45 | 33.3 | no binding (tested: supernatant 1:100) | 7.02 | 1.83 | 0.043 | 6.12e+06 | – | – | – | – | #44 VH3VK4 humanised hIgG1 (antibody, V domains shown, also called VH3Vκ4; Clone VH3VK4 (B)) VH: QVQLQESGPGLVKPSETLSLTCTVSGIDLSSYAMAWVRQAPGKGLEWIGCIDRRGGTFYASWVKGRFTISKTSTTVDLQMTSLTAEDTATYFCARDSGAFDPWGQGTLVTVSS VL: DIQMTQSPSSLSASVGDRVTITCQASQSVYDNYLAWYQQKPGQPPKLLIHAASNLASGVPSRFSGSGSGTEFTLTISSLQPDDFATYYCLGEFSCTTTDCNVFGGGTKVEIK | –
– | – | – | – | – | – | – | – | – | – | – | – | – | – | – | 1.36 | 4.84 | 0.0203 | 4.18e+06 | #44_VH4VK4_H05/pVL (antibody, V domains shown, also called Clone VH4_H05; #44_VH4_H05) VH: QVQLQESGPGLVKPSETLSLTCTVSGIDLSSYAMAWVRQAPGKGLEWIGCIDRRGGTFYASWVKGRFTISKDTSKTTVDLQMTSLTAEDTATYFCARDAGHFDYWGQGTLVTVSS VL: DIQMTQSPSSLSASVGDRVTITCQASQSVYDNYLAWYQQKPGQPPKLLIHAASNLASGVPSRFSGSGSGTEFTLTISSLQPDDFATYYCLGEFSCTTTDCNVFGGGTKVEIK | no binding (tested: 30 ng/ml (legend 1:100))
5.14 | 1.58 | 0.0403 | 7.83e+06 | 60.2 | 87.5 | 41.8 | 90.5 | 49.9 | 36.3 | no binding (tested: supernatant 1:100) | 6.68 | 1.74 | 0.034 | 5.09e+06 | – | – | – | – | #44 VH4VK3 humanised hIgG1 (antibody, V domains shown, also called VH4Vκ3; Clone VH4VK3 (D)) VH: QVQLQESGPGLVKPSETLSLTCTVSGIDLSSYAMAWVRQAPGKGLEWIGCIDRRGGTFYASWVKGRFTISKDTSKTTVDLQMTSLTAEDTATYFCARDSGAFDPWGQGTLVTVSS VL: DIQMTQSPSSLSASVGDRVTITCQASQSVYDNYLAWYQQKPGQPPKLLIHAASNLASGVPSRFKGSGSGTEFTLTISSLQPDDFATYYCLGEFSCTTTDCNVFGGGTKVEIK | –
